In the supplement of paper PMC12042874:
± gives the uncertainty stated by the source.

Experiment: amyloid nucleation score (Sup35N fusion, yeast selection) (log enrichment); library NNK2; higher = more nucleation; inactive = no reads after selection
Outline: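 The nucleation score is the DiMSum log enrichment of output over input reads, centred on the mode score of non-aggregating sequences. Only sequences with 100 or more input reads were scored, using Illumina sequencing of input and output plasmid inserts. Psi-negative yeast expressing Sup35N fused to peptides of 20 random codons were induced 24 hours with 100 μM copper sulfate and grown 7 days at 30°C on medium lacking adenine and uracil.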

Row | Substance | amyloid nucleation score
1 | GLSNLTYDFFPEKPP | -1.45 ± 0.62
2 | GLSQILDDVGWICRVFELQR | 0.299 ± 0.37
3 | GLSRLTRYNNGNITTHSNWH | -0.074 ± 1.1
4 | GLTGRPQRLIVWAYDLERLW | -0.09 ± 0.63
5 | GLVGEGRACYVKHD | 0.861 ± 0.57
6 | GMADWNWFFPILFDPMGTGL | -0.357 ± 0.49
7 | GMCYGGKFDY | -0.356 ± 0.33
8 | GMGSSRGQRSTYYYGDLAYA | 0.96 ± 0.21
9 | GMICKWAWVSTGGKGVKCRE | 0.272 ± 0.43
10 | GMKSFR | -1.68 ± 1.1
11 | GMLFRWCG | 7.56 ± 0.047
12 | GMLVELHYGPMY | 0.334 ± 0.56
13 | GMPFG | 0.044 ± 0.28
14 | GMPVLV | 0.093 ± 0.26
15 | GMRGNSYAVSYRDIVVLAPC | -0.007 ± 0.55
16 | GMRIFNYKNRDYWMACTAMT | inactive
17 | GMRVMVLFDFLYYRCLENLL | -0.632 ± 1.1
18 | GMSITPWHWFGPCISFPDIN | -0.55 ± 0.53
19 | GMVAICFYHM | 6.05 ± 0.046
20 | GMYLVENLLFRAQCRSTHWQ | 1.25 ± 0.37
21 | GNCPLMPMKFRNRMSHSAFS | 0.517 ± 0.4
22 | GNGLFSVFYIFYAAGKRSVC | 0.394 ± 0.62
23 | GNLLLSVITDQL | 4.69 ± 0.072
24 | GNMISERSKSSVHN | -1.52 ± 1.1
25 | GNSIVENFLCSRHQCYVM | 8.598 ± 0.046

Row | Substance | amyloid nucleation score
26 | GNTLGRFMVLHT | -0.199 ± 0.8
27 | GNVVMN | 0.863 ± 0.18
28 | GNWSVDGWQYCNRTHKCSYH | 2.41 ± 0.059
29 | GPFNNRRGQFYSVCIYFLLR | inactive
30 | GPRSPAA | 0.613 ± 0.34
31 | GPSLDLDNVDYIGDSTTYQL | inactive
32 | GPVLGEFVEGSGNANGDEQV | -0.107 ± 1
33 | GPYFVNYPLKTNSIVLWELA | 0.356 ± 0.8
34 | GQDITDTFTLNCSRGFTCIR | 0.091 ± 0.34
35 | GQLGNCLVSAAFLFAFIVLS | 4.33 ± 0.075
36 | GQSLLLEPSGWVSSDIKMKG | 0.153 ± 0.79
37 | GQTLTRRKVKGRQRELTSGQ | 0.967 ± 0.36
38 | GQVRSFCTGEG | -0.677 ± 1
39 | GREVHALPHEGMVDRSGRGT | 1.29 ± 0.16
40 | GRIVVFV | 0.538 ± 0.39
41 | GRKLNFGQAFLWLYQVCWFM | inactive
42 | GRMNTLDTFLTMAISDDASF | -0.147 ± 0.46
43 | GRRFLYKPAKTWYVVWHRGL | 0.229 ± 0.49
44 | GRVFIASLIARTDPPKLVFK | 1.67 ± 0.083
45 | GRWSRF | 0.446 ± 0.64
46 | GSCSKCNWCINKTAQGFVLS | -0.062 ± 0.45
47 | GSFMYSREVRLRYALARSFE | -0.545 ± 0.41
48 | GSHLSSSFTKWMGIPAMVFR | -0.134 ± 0.54
49 | GSKTRFF | inactive
50 | GSSGFGRVLTGIYKCYTYWE | inactive

Row | Substance | amyloid nucleation score
51 | GSSRLCRQYAVNFFDCHMYD | 4.78 ± 0.056
52 | GSSTMWNVLVAWLRTIL | inactive
53 | GSVFSKHQGSFVFSLQQLGL | -1.43 ± 0.34
54 | GSVHANKD | -0.299 ± 0.63
55 | GSVRTDVLSPRFGGTGHLVN | -0.116 ± 0.54
56 | GSVTRGVRRAY | 4.73 ± 0.06
57 | GSVYKCLGSWVIYRFIFSWV | 1.19 ± 0.66
58 | GSYPGRLFTCVKMGVT | 0.363 ± 0.65
59 | GSYVDEVSIYPDEACSYRLA | -0.187 ± 0.76
60 | GTAYAHFFEVNFTSKLLAEF | 1.76 ± 0.18
61 | GTHPCLQVCDDRGDWLLA | 0.868 ± 0.29
62 | GTIFMRALKNAVYASSRALI | -0.247 ± 0.54
63 | GTLWLGDAGRAEN | 0.589 ± 0.39
64 | GTRDHGELGLLFTTTLLFVE | 1.39 ± 0.13
65 | GTTCDIEDVPCMLVVDTLLV | 1.42 ± 0.16
66 | GTVFCYLM | -1.05 ± 1
67 | GVFLGALCVFTSCLSELWMC | -1.49 ± 0.78
68 | GVHLYLNVYVTLKFTATGDS | 5.79 ± 0.077
69 | GVKSFGVFGSMYWILMFSKA | -0.495 ± 0.48
70 | GVRAGACLGNGSVYSSGGRF | inactive
71 | GVSWTFFGEYFQPCSSMKVN | -0.538 ± 0.46
72 | GVTFNADASTFRDACMARLG | 0.752 ± 0.48
73 | GVTFSSMLRPFSAIAKRLVV | 0.733 ± 0.56
74 | GVTSCLRRPWFKYVILSPRP | 1.44 ± 0.21
75 | GVVPQGMMTI | -0.701 ± 0.55

Row | Substance | amyloid nucleation score
76 | GWFFDFFITCPVSHSTFSKL | 2.19 ± 0.14
77 | GWMHFVALKGFSNHGRAGSG | 0.448 ± 0.57
78 | GWQGISAVSRGTGCWLEGTG | 0.649 ± 0.34
79 | GWRFL | -1.17 ± 0.54
80 | GWSYNLSETLKQSVESVLTS | 1.42 ± 0.44
81 | GWVVRRINAVVFVASGSI | 5.601 ± 0.048
82 | GYCKVGCFHLRYGSACCVRM | 0.511 ± 0.41
83 | GYGVAWLYGISDSVRLRAPY | 0.335 ± 0.42
84 | GYINEYCCHLRVNGLLRAPG | -0.315 ± 0.5
85 | GYINWSCDRDMFSRTTDFLG | -0.592 ± 0.34
86 | GYLILFTCNPLVFLVNRSGR | inactive
87 | GYLSGYLRGSNILGHERYRY | -0.85 ± 0.32
88 | GYRVDLIILKFDLWYEY | inactive
89 | GYVGLGFNLTHAFGFGSLAG | 0.656 ± 0.23
90 | GYYCDYSNTSRATRNMASKR | -0.719 ± 0.32
91 | HACSMSIFEFRMCKKWSLLV | -0.848 ± 0.38
92 | HAFRDIMYTVTRSWAKRWFY | 1.56 ± 0.11
93 | HALGGDWHGLGGINS | -1.43 ± 0.55
94 | HARHRGVCFWCVADSAPVYH | -0.012 ± 1.1
95 | HATLNPSSLSATSSNPACRL | 0.171 ± 0.31
96 | HCIMYSTLRHRVWSGRLDGS | 3.86 ± 0.089
97 | HDIVRIALHYQQRVVCAWSC | 0.713 ± 0.24
98 | HDKAHLRTCVVFRLESSGG | 4.29 ± 0.085
99 | HFNSTNPTRLLVDEEFFYFE | -0.317 ± 0.5
100 | HFSLAC | -0.91 ± 0.48

Row | Substance | amyloid nucleation score
101 | HGASSVAFNLLLSCVSWVGC | 7.468 ± 0.04
102 | HGKRFYAECLIVFPIDKRGA | 0.098 ± 1
103 | HGQISLRMWQVRR | 5.759 ± 0.052
104 | HGTATCVAILMNRL | 6.35 ± 0.077
105 | HGTNTRADYFCIYPHGNG | -0.281 ± 0.37
106 | HIFGNRYWYSFCCFLLLPRR | 7.691 ± 0.072
107 | HIIIFLWYRRHFSS | 1.78 ± 0.22
108 | HIRFVDWNDTLIWVANGYI | 0.049 ± 0.8
109 | HIRFYVLSRNRSASNISIFT | 3.09 ± 0.054
110 | HISYVNSSRL | 4.05 ± 0.078
111 | HKAFVAAVERWAEYLDADVS | -0.585 ± 0.63
112 | HKRFKEGLSG | 0.047 ± 0.36
113 | HLCKLSYI | 1.2 ± 0.33
114 | HLFACSTYKSSHRVQVCTVI | -0.497 ± 1
115 | HLLIRGVMSTKNRCSLLVIG | -0.582 ± 0.44
116 | HLLRNLLPHKVGSHVHRWLR | inactive
117 | HLNVKLKQVKDGQPCLMRLA | 1.67 ± 0.4
118 | HLSTSGYVAFLKHLTLCKVL | -0.347 ± 1.1
119 | HLTEFNNRRRLGTDLAGVGN | 0.109 ± 0.33
120 | HLTESHFGWFGSDVSSQTFL | 3.42 ± 0.084
121 | HMFPRWPFDVVKKDPTTTHL | 0.31 ± 0.41
122 | HMSTVLLAVAFIALNFPSVE | -0.373 ± 1
123 | HNGVIVIDCWRRKFHPNVIS | -0.922 ± 1
124 | HNLEWKNRNQTWSSLTPIVW | 0.384 ± 0.44
125 | HNVEGRDRVVLMFSIKCCML | 5.92 ± 0.061

Row | Substance | amyloid nucleation score
126 | HNVYMVFYFAFFSPFMIRYI | 3.44 ± 0.088
127 | HNYIWARTRSRGRPMYSVPA | 0.798 ± 0.33
128 | HNYMLVILHRDSPNLNLGHS | 3.94 ± 0.12
129 | HPMLLMKNARG | -0.086 ± 0.27
130 | HPRTPGLVIEDKKNLFLVWR | 5.22 ± 0.057
131 | HPTLEPGKHYLRVSKSNTSR | 0.404 ± 0.26
132 | HQAWSCSTVGFDLAVVNFAD | -0.197 ± 0.43
133 | HQFYHFAEENN | -0.249 ± 1
134 | HQLPVHEPYEYWLQQGSNCP | 0.353 ± 0.56
135 | HQRYSRLLIKKCYTSASVPC | -0.245 ± 0.62
136 | HRASRMCGINLARPTVMVVT | 1.9 ± 0.12
137 | HRDGLPVVTL | 0.034 ± 1.1
138 | HRLVGTC | 1.86 ± 0.21
139 | HRMRVSIGATYVTALYQVKD | 3.18 ± 0.095
140 | HRNNQMQCVFAFLW | 7.199 ± 0.053
141 | HRRCMFQNTAMRHRQWDA | 0.841 ± 0.44
142 | HRTGWKIFVSW | 0.732 ± 0.17
143 | HRTVRFP | inactive
144 | HSFLPRGHVADYNKLPVWSV | -0.707 ± 0.61
145 | HSGFADFGRMEMIRDPTGRD | 1.96 ± 0.15
146 | HSMQSVPKWKL | 1.86 ± 0.25
147 | HSMSYFDYAIRLDRVGDVIS | 0.339 ± 0.38
148 | HSRLLCWANVDLERFSEWSG | 1.46 ± 0.23
149 | HSTIAVSCY | 0.219 ± 1
150 | HSWVFLWRGNCSFWRDSFKV | inactive

Row | Substance | amyloid nucleation score
151 | HSYITG | 0.018 ± 0.19
152 | HTFITVPASGRAATLCTSED | 1.14 ± 0.12
153 | HTRLHKGIQRVEIGSMNGK | -0.637 ± 1.1
154 | HTSFIMYMYHSRIWHGMYQT | inactive
155 | HVAESHMS | 1.16 ± 0.43
156 | HVGVHSNFLQIS | -1.34 ± 1
157 | HVLSLGAGWKYVGVDECKE | 0.317 ± 0.31
158 | HVNGL | 0.098 ± 0.5
159 | HVVMFS | -0.38 ± 0.76
160 | HWTSFKSGNALGMCETI | 0.076 ± 0.41
161 | HYCVIEKRSHIG | -0.739 ± 0.64
162 | HYFRIAIL | -0.667 ± 0.45
163 | HYITKFSYDLGRKAKALVLS | -0.626 ± 0.54
164 | HYLPT | -0.208 ± 0.35
165 | HYRSFVDFITGWLVSFATEP | 4.28 ± 0.054
166 | IAACLFYNRSVNIFTGVDGL | 4.09 ± 0.14
167 | IACYMMGLRLL | -0.414 ± 0.41
168 | IADIVEHCCAVRVCALGGLM | 0.393 ± 0.8
169 | IAGLTISSAISGSWDVVKPS | 4.38 ± 0.052
170 | IAHCCFGQF | 7.634 ± 0.074
171 | IAIRFIDDYCGFRGV | 0.288 ± 0.8
